Test results reported in paper PMC314469, “Protein Interaction Networks by Proteome Peptide Scanning” (PLoS Biology, 2004).

T1: Yfr024 SH3 (LSB3_YEAST), P43603
T1 chain: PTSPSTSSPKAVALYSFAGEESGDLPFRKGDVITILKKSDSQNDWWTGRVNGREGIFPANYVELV

T2: Boi1 SH3 (BOI1_YEAST), P38041
T2 chain: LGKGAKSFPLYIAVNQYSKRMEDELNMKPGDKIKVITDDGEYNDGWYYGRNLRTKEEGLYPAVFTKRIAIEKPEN

T3: Boi2 SH3 (BOI2_YEAST), P39969
T3 chain: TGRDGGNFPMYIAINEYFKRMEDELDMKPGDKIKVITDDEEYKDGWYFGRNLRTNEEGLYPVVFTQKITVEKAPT

T4: Rvs167 SH3 (RV167_YEAST), P39743
T4 chain: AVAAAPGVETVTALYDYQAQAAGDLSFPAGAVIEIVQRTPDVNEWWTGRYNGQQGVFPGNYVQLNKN

T5: Myo5 SH3 (MYO5_YEAST), Q04439
T5 chain: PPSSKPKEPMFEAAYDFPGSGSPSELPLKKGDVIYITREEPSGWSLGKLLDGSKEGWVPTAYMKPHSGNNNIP

T6: Yhr016c SH3 (YSC84_YEAST), P32793
T6 chain: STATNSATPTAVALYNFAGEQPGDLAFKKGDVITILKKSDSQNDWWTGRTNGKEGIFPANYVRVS


Key:
Assay in all cases: SPOT array
[1] = molecular target: Sho1 SH3 (SHO1_YEAST), P40073
[2] = molecular target: T1, Yfr024 SH3 (LSB3_YEAST), P43603
[3] = molecular target: T2, Boi1 SH3 (BOI1_YEAST), P38041
[4] = molecular target: T3, Boi2 SH3 (BOI2_YEAST), P39969
[5] = molecular target: T4, Rvs167 SH3 (RV167_YEAST), P39743
[6] = molecular target: T5, Myo5 SH3 (MYO5_YEAST), Q04439
[7] = molecular target: T6, Yhr016c SH3 (YSC84_YEAST), P32793

Sequence of Sho1 SH3 (SHO1_YEAST), P40073 (P40073 295-366): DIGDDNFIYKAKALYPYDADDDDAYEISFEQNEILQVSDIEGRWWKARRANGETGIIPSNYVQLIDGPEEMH

Binder	normalised SPOT signal, Boehringer light units (BLU); mean over the file's lines of this peptide [1]	normalised SPOT signal, Boehringer light units (BLU); mean over the file's lines of this peptide [2]	normalised SPOT signal, Boehringer light units (BLU); mean over the file's lines of this peptide [3]	normalised SPOT signal, Boehringer light units (BLU); mean over the file's lines of this peptide [4]	normalised SPOT signal, Boehringer light units (BLU); mean over the file's lines of this peptide [5]	normalised SPOT signal, Boehringer light units (BLU); mean over the file's lines of this peptide [6]	normalised SPOT signal, Boehringer light units (BLU); mean over the file's lines of this peptide [7]
PHFAKHSPDSPRTS [YER167W 325-338]	25.1	33.4	150	11	110	236	27.4
PEWRRPHPNIPDAK [YJR035W 269-282]	9.9	1150	1280	40.3	94.1	183	145
PFIRRYTPLKPITK [YKR093W 410-423]	59	624	529	67.8	585	649	91.6
PGGPKFEPLYPREE [YHR165C 347-360]	40.6	12.3	0	16.6	176	90	16.9

The next lines start with the values.

normalised SPOT signal, Boehringer light units (BLU); mean over the file's lines of this peptide [1]	normalised SPOT signal, Boehringer light units (BLU); mean over the file's lines of this peptide [2]	normalised SPOT signal, Boehringer light units (BLU); mean over the file's lines of this peptide [3]	normalised SPOT signal, Boehringer light units (BLU); mean over the file's lines of this peptide [4]	normalised SPOT signal, Boehringer light units (BLU); mean over the file's lines of this peptide [5]	normalised SPOT signal, Boehringer light units (BLU); mean over the file's lines of this peptide [6]	normalised SPOT signal, Boehringer light units (BLU); mean over the file's lines of this peptide [7]	Binder
69.5	89.7	618	0	80.9	253	31.8	PESAKSNPNSPRLK [YOR231W 8-21]
54.8	69.3	685	0	31.5	125	14.6	PELAKNSPLAPIKK [YLL021W 1081-1094]
97.2	116	65	0	147	974	27.7	PFLIKFTPKFPQSI [YMR156C 9-22]
